In paper PMC8500521:

Columns and labels:
[1] = molecular target: 6HB (HR1-linker-HR2) of SARS-CoV-2 fusion protein (SARS-CoV-2) (UniProt P0DTC2); assay: AUC; sedimentation velocity, 50,000 rpm, 20 C, 50 mM NaCl, 25 mM sodium phosphate pH 6.0, no detergent; monomer to tetramer
[2] = molecular target: 6HB (HR1-linker-HR2) of SARS-CoV-2 fusion protein (SARS-CoV-2) (UniProt P0DTC2); assay: SEC-MALS; Superose-12, room temperature, 20 mM sodium phosphate pH 6.0, 30 mM NaCl; injected 65 uM 6HB, 90 uM HR1
[3] = molecular target: HR1 (heptad repeat 1) domain of SARS-CoV-2 spike protein (SARS-CoV-2) (UniProt P0DTC2); assay: AUC; sedimentation velocity, 50,000 rpm, 20 C, 50 mM NaCl, 25 mM sodium phosphate pH 6.0, no detergent; monomer to tetramer

Substance	stoichiometry N [1]	stoichiometry N [2]	stoichiometry N [3]
6HB (HR1-linker-HR2) of SARS-CoV-2 fusion protein (from UniProt P0DTC2 918-965; P0DTC2 1171-1207)	3	3	–
HR1 (heptad repeat 1) domain of SARS-CoV-2 spike protein (from UniProt P0DTC2 918-965) (domain or fragment)	–	–	4
